13 sequences from the Immune Epitope Database (IEDB) can be followed below.

Common to all, as to details: source organism: Human immunodeficiency virus type 1 (JRCSF ISOLATE)
Test [1] deals with HLA-A*03:01. Description: IEDB peptide-MHC binding, purified MHC/competitive/radioactivity; ≥ and ≤ were set here for values at or beyond the usual limits of such assays.
In test [2] the target is HLA-A*11:01. The test is described as above.
For test [3], the target named is HLA-A*03:01. Description: IEDB peptide-MHC binding, purified MHC/competitive/radioactivity; filed as Kd, often an IC50 or EC50 that approximates it; ≥ and ≤ were set here for values at or beyond the usual limits of such assays.
For test [4], the target named is HLA-A*11:01. The test is described as above.

For QMAVFIHNFK, in the test with HLA-A*03:01 [1], the IC50 – broadly, the concentration that inhibits the measured activity by half – was determined as 0.0092 µM. MAVFIHNFK: the half-inhibitory concentration (IC50) came to 0.02 µM in the test with HLA-A*11:01 [2] and 0.647 µM with HLA-A*03:01 [1]. Consider MVHQAISPR, for which the IC50 with HLA-A*11:01 [2] came out at 0.0896 µM; with HLA-A*03:01 [1] it was 0.0611 µM. For the sequence TTLFCASDAK, the IC50 in the test with HLA-A*11:01 [2] came to 0.0273 µM; in the test with HLA-A*03:01 [1] it was 0.12 µM. On to KIQNFRVYYR, for which the IC50 with HLA-A*03:01 [1] is 0.344 µM. Take NTPVFAIKK: the IC50 is 0.1 µM with HLA-A*11:01 [2] and 0.333 µM in the test with HLA-A*03:01 [1]. Regarding YLAWVPAHK, the IC50 in the test with HLA-A*03:01 [1] was determined as 0.143 µM.

On to TIKIGGQLK, for which the IC50 with HLA-A*11:01 [2] turned out to be 0.182 µM; in the test with HLA-A*03:01 [1], 0.0407 µM. For AIFQSSMTK, in the test with HLA-A*03:01 [1], the IC50 was found to be 0.01 µM. AVFIHNFKR: the IC50 with HLA-A*11:01 [2] was determined as 0.0033 µM; in the test with HLA-A*03:01 [1], 0.0647 µM. In the case of MTKILEPFR, the Kd – broadly, the equilibrium constant for the complex coming apart – with HLA-A*03:01 [3] was 13.8 µM.

For the sequence TLFCASDAK, the IC50 with HLA-A*03:01 [1] was found to be 0.118 µM. For QMVHQAISPR, in the test with HLA-A*11:01 [4], the Kd is 6 µM. Also, the IC50 in the test with HLA-A*03:01 [1] stood at 0.423 µM.
